Laboratory results taken from patent EP4806514A2 (Lepu Biopharma Co., Ltd., dated 2025).

T1: hCDH17-his (full length extracellular domain of human CDH17, Q23-M787, his tag at the C-terminal) (human, UniProt Q12864 23-787)
T1 construct: Limits of the construct (UniProt Q12864, Q23-M787, C-terminal his tag); also called human CDH17-his protein; human CDH17 protein
T1 sequence: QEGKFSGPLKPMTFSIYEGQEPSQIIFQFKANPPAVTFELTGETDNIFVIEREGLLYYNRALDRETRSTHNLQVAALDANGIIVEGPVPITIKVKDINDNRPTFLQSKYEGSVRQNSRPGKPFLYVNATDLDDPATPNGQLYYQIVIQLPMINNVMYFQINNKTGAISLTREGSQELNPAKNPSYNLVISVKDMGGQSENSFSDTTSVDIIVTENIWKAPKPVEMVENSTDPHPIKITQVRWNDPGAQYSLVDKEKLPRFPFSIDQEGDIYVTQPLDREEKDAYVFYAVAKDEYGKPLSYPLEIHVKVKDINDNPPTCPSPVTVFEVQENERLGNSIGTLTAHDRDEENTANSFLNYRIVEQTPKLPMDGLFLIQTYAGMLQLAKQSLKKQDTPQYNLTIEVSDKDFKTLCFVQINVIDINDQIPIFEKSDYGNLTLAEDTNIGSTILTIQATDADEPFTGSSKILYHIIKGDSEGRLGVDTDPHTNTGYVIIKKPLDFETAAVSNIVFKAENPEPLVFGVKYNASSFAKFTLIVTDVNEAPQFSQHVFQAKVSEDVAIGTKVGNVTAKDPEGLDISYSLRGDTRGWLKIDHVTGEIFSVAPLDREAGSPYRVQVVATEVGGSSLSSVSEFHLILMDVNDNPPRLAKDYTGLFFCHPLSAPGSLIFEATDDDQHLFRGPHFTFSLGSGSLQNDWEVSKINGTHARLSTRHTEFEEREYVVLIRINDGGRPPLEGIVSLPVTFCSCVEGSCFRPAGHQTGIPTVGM

T2: human CDH17, full length, expressed on cells (HEK293-hCDH17); AsPC-1, HCT-8, AGS, LoVo, KATO III, HT-29 tumor … (human, UniProt Q12864 23-832)
T2 construct: also called human CDH17 expressed on tumor cells
T2 sequence: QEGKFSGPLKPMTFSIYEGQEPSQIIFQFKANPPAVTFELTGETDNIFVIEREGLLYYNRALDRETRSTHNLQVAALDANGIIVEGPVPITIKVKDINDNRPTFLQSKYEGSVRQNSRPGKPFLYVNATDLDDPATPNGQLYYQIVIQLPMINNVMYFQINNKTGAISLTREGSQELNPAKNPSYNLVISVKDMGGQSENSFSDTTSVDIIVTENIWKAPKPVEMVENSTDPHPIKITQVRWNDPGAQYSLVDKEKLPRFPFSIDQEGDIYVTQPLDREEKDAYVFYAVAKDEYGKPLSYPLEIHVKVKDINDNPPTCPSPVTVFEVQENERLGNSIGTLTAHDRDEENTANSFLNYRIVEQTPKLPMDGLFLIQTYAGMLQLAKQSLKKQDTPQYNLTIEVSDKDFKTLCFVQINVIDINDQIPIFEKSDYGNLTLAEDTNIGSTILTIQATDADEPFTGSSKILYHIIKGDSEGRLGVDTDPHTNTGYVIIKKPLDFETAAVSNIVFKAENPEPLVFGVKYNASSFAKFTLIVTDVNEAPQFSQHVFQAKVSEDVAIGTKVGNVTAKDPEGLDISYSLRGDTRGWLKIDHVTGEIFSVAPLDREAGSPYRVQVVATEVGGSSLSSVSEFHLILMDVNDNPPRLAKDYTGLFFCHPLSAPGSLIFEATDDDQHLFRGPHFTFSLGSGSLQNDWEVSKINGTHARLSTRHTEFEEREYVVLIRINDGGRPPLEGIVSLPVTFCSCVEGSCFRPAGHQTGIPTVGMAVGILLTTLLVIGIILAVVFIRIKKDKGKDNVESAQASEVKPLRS


What was measured:
[1] = target: T1, hCDH17-his (full length extracellular …); assay: SPR (Biacore 8K), antibody captured on Protein A chip, hCDH17-his injected
[2] = target: T2, human CDH17, full length, expressed on …; assay: flow cytometry, HEK293-hCDH17 cells

Binder | binding result [1] | binding result [2]
29H8D3-z17 (antibody, V domains shown, Humanized, human IgG1 constant region) VH: QVQLVQSGAEVKKPGASVKVSCKASGYTFTDHTIHWVRQAPGQGLEWMGYIYPRDGYTKYNEKFKDRVTMTTDTSTSTAYMELRSLRSDDTAVYYCARFYYGYWYFDVWGQGTTVTVSS VL: DIVMTQSPLSLPVTPGEPASISCRSSKSLLRSNGNTYLYWFLQKPGQSPQVLIYRMSNLASGVPDRFSGSGSGTAFTLKISRVEAEDVGVYYCMQHLEYPFTFGQGTKLEIK | binds | –
29H8D3-z18 (antibody, V domains shown, Humanized, human IgG1 constant region) VH: QVQLVQSGAEVKKPGASVKVSCKASGYTFTDHTIHWVRQAPGQGLEWIGYIYPRDGYTKYNEKFKDRATMTTDTSTSTAYMELRSLRSDDTAVYYCARFYYGYWYFDVWGQGTTVTVSS VL: DIVMTQSPLSLPVTPGEPASISCRSSKSLLRSNGNTYLYWFLQKPGQSPQVLIYRMSNLASGVPDRFSGSGSGTAFTLKISRVEAEDVGVYYCMQHLEYPFTFGQGTKLEIK | binds | –
29H8D3-z20 (antibody, V domains shown, Humanized, human IgG1 constant region) VH: QVQLVQSGAEVKKPGASVKVSCKASGYTFTDHTIHWMRQRPGQGLEWIGYIYPRDGYTKYNEKFKDRATLTADTSTSTAYMELRSLRSDDTAVYYCARFYYGYWYFDVWGQGTTVTVSS VL: DIVMTQSPLSLPVTPGEPASISCRSSKSLLRSNGNTYLYWFLQKPGQSPQVLIYRMSNLASGVPDRFSGSGSGTAFTLKISRVEAEDVGVYYCMQHLEYPFTFGQGTKLEIK | binds | –
29H8D3-z19 (antibody, V domains shown, Humanized, human IgG1 constant region) VH: QVQLVQSGAEVKKPGASVKVSCKASGYTFTDHTIHWMRQAPGQGLEWIGYIYPRDGYTKYNEKFKDRATMTTDTSTSTAYMELRSLRSDDTAVYYCARFYYGYWYFDVWGQGTTVTVSS VL: DIVMTQSPLSLPVTPGEPASISCRSSKSLLRSNGNTYLYWFLQKPGQSPQVLIYRMSNLASGVPDRFSGSGSGTAFTLKISRVEAEDVGVYYCMQHLEYPFTFGQGTKLEIK | binds | –
29H8D3-z23 (antibody, V domains shown, Humanized, human IgG1 constant region) VH: QVQLVQSGAEVKKPGASVKVSCKASGYTFTDHTIHWMRQAPGQGLEWIGYIYPRDGYTKYNEKFKDRATMTTDTSTSTAYMELRSLRSDDTAVYYCARFYYGYWYFDVWGQGTTVTVSS VL: DIVMTQSPLSLPVTPGEPASISCRSSKSLLRSNGNTYLYWFLQKPGQSPQVLIYRMSNLASGVPDRFSGSGSGTAFTLKISRVEAEDVGVYYCMQHLEYPFTFGAGTKLEIK | binds | –
29H8D3-z22 (antibody, V domains shown, Humanized, human IgG1 constant region) VH: QVQLVQSGAEVKKPGASVKVSCKASGYTFTDHTIHWVRQAPGQGLEWIGYIYPRDGYTKYNEKFKDRATMTTDTSTSTAYMELRSLRSDDTAVYYCARFYYGYWYFDVWGQGTTVTVSS VL: DIVMTQSPLSLPVTPGEPASISCRSSKSLLRSNGNTYLYWFLQKPGQSPQVLIYRMSNLASGVPDRFSGSGSGTAFTLKISRVEAEDVGVYYCMQHLEYPFTFGAGTKLEIK | binds | –
29H8D3-z21 (antibody, V domains shown, Humanized, human IgG1 constant region) VH: QVQLVQSGAEVKKPGASVKVSCKASGYTFTDHTIHWVRQAPGQGLEWMGYIYPRDGYTKYNEKFKDRVTMTTDTSTSTAYMELRSLRSDDTAVYYCARFYYGYWYFDVWGQGTTVTVSS VL: DIVMTQSPLSLPVTPGEPASISCRSSKSLLRSNGNTYLYWFLQKPGQSPQVLIYRMSNLASGVPDRFSGSGSGTAFTLKISRVEAEDVGVYYCMQHLEYPFTFGAGTKLEIK | binds | –
29D2D7-z19 (antibody, V domains shown, Humanized, human IgG1 constant region) VH: QVQLVQSGAEVKKPGASVKVSCKASGYTFTDYDMHWVKQAPGQGLEWIGGFDPESAGTVYNLRFKDKATLTADKSTSTAYMELRSLRSEDTAVYYCARKGYYSVSSPFTYWGQGTLVTVSS VL: not shown | binds | binds
61C7F12-z2 (antibody, V domains shown, Humanized, human IgG1 constant region; also called 61C7F12 HU-VH1-0 / HU-VL1-1) VH: EVQLVESGGGLVKPGGSLRLSCAASGFTFSSYAMSWVRQAPGKGLEWVSTINIGGSYTYYPDSVKGRFTISRDNAKNSLYLQMNSLRAEDTAVYYCARQEGRYWYFDVWGQGTTVTVSS VL: DIQLTQSPSFLSASVGDRVTITCTASSSVSSSYLHWYQQKPGKAPKLWIYSTSNLASGVPSRFSGSGSGTEYTLTISSLQPEDFATYYCHQFHRSPYTFGGGTKVEIK | binds | binds
61C7F12-z6 (antibody, V domains shown, Humanized, human IgG1 constant region; also called 61C7F12 HU-VH1-1 / HU-VL1-1) VH: EVQLVESGGGLVKPGGSLRLSCAASGFTFSSYAMSWVRQAPGKGLEWVATINIGGSYTYYPDSVKGRFTISRDNAKNSLYLQMNSLRAEDTAVYYCARQEGRYWYFDVWGQGTTVTVSS VL: DIQLTQSPSFLSASVGDRVTITCTASSSVSSSYLHWYQQKPGKAPKLWIYSTSNLASGVPSRFSGSGSGTEYTLTISSLQPEDFATYYCHQFHRSPYTFGGGTKVEIK | – | binds
61C7F12-z3 (antibody, V domains shown, Humanized, human IgG1 constant region; also called 61C7F12 HU-VH1-0 / HU-VL1-2) VH: EVQLVESGGGLVKPGGSLRLSCAASGFTFSSYAMSWVRQAPGKGLEWVSTINIGGSYTYYPDSVKGRFTISRDNAKNSLYLQMNSLRAEDTAVYYCARQEGRYWYFDVWGQGTTVTVSS VL: DIVLTQSPSFLSASVGDRVTITCTASSSVSSSYLHWYQQKPGKSPKLWIYSTSNLASGVPSRFSGSGSGTEYSLTISSLQPEDFATYYCHQFHRSPYTFGGGTKVEIK | binds | binds
61C7F12-z5 (antibody, V domains shown, Humanized, human IgG1 constant region; also called 61C7F12 HU-VH1-1 / HU-VL1-0) VH: EVQLVESGGGLVKPGGSLRLSCAASGFTFSSYAMSWVRQAPGKGLEWVATINIGGSYTYYPDSVKGRFTISRDNAKNSLYLQMNSLRAEDTAVYYCARQEGRYWYFDVWGQGTTVTVSS VL: DIQLTQSPSFLSASVGDRVTITCTASSSVSSSYLHWYQQKPGKAPKLLIYSTSNLASGVPSRFSGSGSGTEFTLTISSLQPEDFATYYCHQFHRSPYTFGGGTKVEIK | – | binds
61C7F12-z4 (antibody, V domains shown, Humanized, human IgG1 constant region; also called 61C7F12 HU-VH1-0 / HU-VL1-3) VH: EVQLVESGGGLVKPGGSLRLSCAASGFTFSSYAMSWVRQAPGKGLEWVSTINIGGSYTYYPDSVKGRFTISRDNAKNSLYLQMNSLRAEDTAVYYCARQEGRYWYFDVWGQGTTVTVSS VL: QIVLTQSPSFLSASVGDRVTITCTASSSVSSSYLHWYQQKPGKSPKLWIYSTSNLASGVPSRFSGSGSGTSYSLTISSLQPEDFATYYCHQFHRSPYTFGGGTKVEIK | – | binds
61C7F12-z7 (antibody, V domains shown, Humanized, human IgG1 constant region; also called 61C7F12 HU-VH1-1 / HU-VL1-2) VH: EVQLVESGGGLVKPGGSLRLSCAASGFTFSSYAMSWVRQAPGKGLEWVATINIGGSYTYYPDSVKGRFTISRDNAKNSLYLQMNSLRAEDTAVYYCARQEGRYWYFDVWGQGTTVTVSS VL: DIVLTQSPSFLSASVGDRVTITCTASSSVSSSYLHWYQQKPGKSPKLWIYSTSNLASGVPSRFSGSGSGTEYSLTISSLQPEDFATYYCHQFHRSPYTFGGGTKVEIK | – | binds
61C7F12-z1 (antibody, V domains shown, Humanized, human IgG1 constant region; also called 61C7F12 HU-VH1-0 / HU-VL1-0) VH: EVQLVESGGGLVKPGGSLRLSCAASGFTFSSYAMSWVRQAPGKGLEWVSTINIGGSYTYYPDSVKGRFTISRDNAKNSLYLQMNSLRAEDTAVYYCARQEGRYWYFDVWGQGTTVTVSS VL: DIQLTQSPSFLSASVGDRVTITCTASSSVSSSYLHWYQQKPGKAPKLLIYSTSNLASGVPSRFSGSGSGTEFTLTISSLQPEDFATYYCHQFHRSPYTFGGGTKVEIK | binds | binds
69E3H11-z10 (antibody, V domains shown, Humanized, human IgG1 constant region; also called 69E3H11 HU-VH1-3 / HU-VL1-0) VH: QVQLVQSGAEVKKPGASVKVSCKASGYTFTTYWMHWVKQAPGQRLEWIGEIDPSDSYANYNQKFKGKATLTVDKSASTAYMELSSLRSEDTAVYYCALYYGYGDWGQGTTVTVSS VL: EIVLTQSPDFQSVTPKEKVTITCSVSSSISSIHLHWYQQKPDQSPKLLIKRTSNLASGVPSRFSGSGSGTDFTLTINSLEAEDAATYYCQQGSNLPLTFGQGTRLEIK | – | binds
